Data on 14 molecules can be found in patent publication US20130202591A1 (ANAPTYSBIO, published 2013).

First the molecules themselves.
B1: APE755-1574/773 (antibody, V domains shown)
VH: EVQLVESGGGLVQPGGSLRLSCAASGFTFSNHWMNWVRQTPGKGLEWVAAINEDGSEKYYVGSVKVRFTISRDNAKNSLYLQMNSLRVEDTAVYYCARDYYDILTRDYYDILTDYYIHYWYFDLWGRGTLVTVSS
VL: not shown
notes: Human IgG (detected with anti-human IgG)
B2: APE422-1141/773 (antibody, V domains shown)
VH: EVQLVESGGGLVQPGGSLRLSCAASGFTFSNHWMNWVRQTPGKGLEWVAAINEDGSEKYYVGSVKVRFTISRDNAKNSLYLQMNSLRVEDTAVYYCARDYYDILTDYYIHYWYFDLWGRGTLVTVSS
VL: not shown
notes: as for B1
B3: APE508-1266/773 (antibody, V domains shown)
VH: B2 VH with A97V
VL: not shown
notes: as for B1
B4: APE265-817/773 (antibody, V domains shown)
VH: B2 VH with T40A, V66G
VL: not shown
notes: also called Well 11
B5: APE321-844/773 (antibody, V domains shown)
VH: B2 VH with N31S, H32Y, N35S, T40A, A50S, N52K, E53Q, G62D, V66G, V88A
VL: not shown
notes: Human IgG; also called Well 12
B6: 546/773 (antibody, V domains shown)
VH: B2 VH with N31S, H32Y, N35S, T40A, A50N, N52K, E53Q, G62D, V66G, V88A
VL: not shown
notes: IgG captured by anti-human Fc; also called Well 9
B7: antibody with heavy chain SEQ ID NO: 2 and light chain SEQ ID NO: 29 (antibody, V domains shown)
VH: B2 VH with N31S, N35S, T40A, A50N, N52K, G62D, V66G, V88A
VL: not shown
notes: IgG captured by anti-human Fc; also called Well 3
B8: antibody with heavy chain SEQ ID NO: 4 and light chain SEQ ID NO: 29 (antibody, V domains shown)
VH: B2 VH with T40A, V66G
VL: not shown
notes: IgG captured by anti-human Fc; also called Well 4
B9: antibody with heavy chain SEQ ID NO: 6 and light chain SEQ ID NO: 27 (antibody, V domains shown)
VH: B2 VH with N31S, H32Y, N35S, T40A, A50S, N52K, E53Q, G62D, V66G, V88A
VL: not shown
notes: IgG captured by anti-human Fc; also called Well 20
B10: antibody with heavy chain SEQ ID NO: 30 and light chain SEQ ID NO: 25 (antibody, V domains shown)
VH: B2 VH with H32Y, T40A, E53Q, V66G, A97V
VL: not shown
notes: IgG captured by anti-human Fc; also called Well 15
B11: 843/773 (antibody, V domains shown)
VH: B2 VH with H32Y, T40A, A50S, E53Q, V66G, A97V
VL: not shown
notes: IgG captured by anti-human Fc; also called Well 14
B12: antibody with heavy chain SEQ ID NO: 9 and light chain SEQ ID NO: 29 (antibody, V domains shown)
VH: B2 VH with H32Y, T40A, A50S, E53Q, V66G, A97V
VL: not shown
notes: IgG captured by anti-human Fc; also called Well 7
B13: antibody with heavy chain SEQ ID NO: 1 and light chain SEQ ID NO: 29 (antibody, V domains shown)
VH: B2 VH with N31S, H32Y, N35S, T40A, A50N, N52K, E53Q, G62D, V66G, V88A
VL: not shown
notes: IgG captured by anti-human Fc; also called Well 2
B14: antibody with heavy chain SEQ ID NO: 30 and light chain SEQ ID NO: 24 (antibody, V domains shown)
VH: B2 VH with H32Y, T40A, E53Q, V66G, A97V
VL: not shown
notes: IgG captured by anti-human Fc; also called Well 8

Where a chain is given by its changes, count along the chain named.

One assay deals with T1, human IL-17 (human, UniProt Q16552 24-155). Put plainly: cell-based or functional assay.
Regarding B1, the “IL-6 and IL-8 release from IL-17-stimulated primary human RA synovial fibroblasts, potency against the reference anti-IL-17a antibodies” value came to 5 fold.

Another assay deals with T2, human Myc-IL-17a (APE280) (human, UniProt Q16552 24-155, limits assumed). Kind of assay: cell-based or functional assay.
In the case of B1, the “IL-8 release from human IL-17-stimulated cell lines, potency against the first reference anti-IL17a antibody” value is 2 fold.

Another assay concerns the target T1, human IL-17. Kind of assay: Average KINEXA values.
B2 showed a koff of 2.4e-05 s⁻¹ and a kon of 360000 M⁻¹ s⁻¹.

For the molecule B3, the koff was found to be 1.8e-05 s⁻¹ and the kon is 418000 M⁻¹ s⁻¹.

B1: the off-rate constant (koff) came out at 5.9e-06 s⁻¹ and the on-rate constant (kon) is 1.2e+06 M⁻¹ s⁻¹.

For another assay, the target named is T3, IL-17 antigen (APE349) linked to wasabi fluorescent protein (WFP) (labeled with Eu3+-TBP-NHS Cryptate).
T3 construct: also called labeled antigen
Kind of assay: HTRF competition against the labelled second reference antibody. On the technique in general: Time-resolved FRET reads energy transfer from a long-lived donor to a nearby acceptor.
In the case of B3, the binding result is on record as “binds”.

The target in the next assay is T1, human IL-17. Put plainly: KINEXA 3000, solution equilibrium, free antibody captured on human IL-17a beads.
Take B4: the Kd came to 0.322 nM.

B5 came in with a Kd of 9.4 nM.

For the molecule B2, the affinity, expressed as Kd, was 0.067 nM.

As to B3, binding was characterised by a dissociation constant (Kd) of 0.043 nM.

Consider B1, for which the Kd was 0.0049 nM.

The target of another assay is T2, human Myc-IL-17a (APE280). Put plainly: competition ELISA, plate-coated myc-IL-17a, biotinylated IL-17RA as competitor, IC50 comparison. In general terms: In an ELISA, binding on a coated surface is turned into a signal by an enzyme label.
As to B1, the “fold potency in blocking IL-17/IL-17RA interaction against the first reference anti-IL-17a antibody” value turned out to be 40 fold.

A further assay addresses T1, human IL-17. Kind of assay: SPR (BIACORE A100), IgG from transfection supernatant captured by anti-human Fc on CM5 chip, human IL-17 flowed over; 1:1 model with mass transport. Background: SPR reads the build-up and loss of mass on a sensor chip optically.
In the case of B6, the Kd was greater than 10 nM.

The molecule B7 yielded a Kd greater than 10 nM.

B4 displayed a Kd of less than 1 nM.

B8 displayed a Kd of less than 1 nM.

Consider B5, for which the Kd was less than 1 nM.

B9 displayed a Kd greater than 10 nM.

On to B10, for which the Kd was less than 1 nM.

B11 displayed a Kd of less than 1 nM.

As for B12, the Kd is greater than 10 nM.

Consider B13, for which the Kd is greater than 10 nM.

Molecule B14 showed a Kd of less than 1 nM.

Another assay deals with T2, human Myc-IL-17a (APE280). Kind of assay: competition ELISA: plate coated with myc-IL-17a (APE280), antibody titrated against biotinylated IL-17RA (sheet: 2.1 nM, overnight incubation), bound IL-17RA detected with avidin-HRP, OD450 as % of no antibody.
B3 registered a half-maximal inhibitory concentration (IC50) of 1.6 nM.

B1 gave an IC50 of 0.34 nM.

Usually koff stands for a measure of how fast the partners let go of each other. A low value points to a long-lived complex. A word on the kon: it is the rate constant with which the complex forms. A high value points to faster complex formation. One may read the Kd as the free concentration of one partner at which half of the binding sites on the other are occupied at equilibrium, for simple one-to-one binding. Read a high Kd as weaker binding. In general, IC50 refers to the concentration that gives 50% inhibition. A higher IC50 goes with weaker potency in that assay.
